Test results: US10428327B2, “Compositions and methods for enhancing homologous recombination” (LIFE TECHNOLOGIES CORPORATION, priority 2016, dated 2019)
Oligonucleotides are written 5' to 3', each unit as a sugar letter and its base; * is a phosphorothioate linkage, no mark a phosphodiester; rarer units and linkages stand in square brackets, end groups in braces. Plain capitals give the bases only. d = 2'-deoxy (DNA); {P} = phosphate

Experiments:
Format in all cases: cell-based
[1] = tested on: eBFP locus in HEK293 cells expressing eBFP; assay: EcoRI restriction digestion of PCR-amplified eBFP locus (FLAG tag/EcoRI insertion); conditions: FIG. 11A, donor configurations, sequential delivery, 48 hours
Excerpt: (§1) FIG. 11. Insertion of a FLAG tag along with an EcoRI site using dsDNA donor with single-stranded overhangs. (A) Various donor DNA molecules containing a 30-base FLAG tag along with an EcoRI site were designed and synthesized, including single-stranded DNA donor (ssDNA), blunt-end dsDNA donor (blunt), dsDNA donor with 5′ overhang (5′), dsDNA donor with 3′ overhang (3′). The length of overhangs varied from 6 nucleotides (6), 15 nucleotides (15) to 30 nucleotides (30). The 3′ and 5′ ends of the oligonucleotides harbored two consecutive phosphorothioate-modified bases (Table 4). The short dsDNA donors with and without overhangs were prepared by annealing two short DNA oligonucleotides. […] At 48 hours post transfection, the eBFP locus was PCR-amplified. The resulting PCR fragments were analyzed by the genomic cleavage and detection assays to determine the percentage of Indel or subjected to restriction digestion with EcoRI to determine the percentage of digestion. (B) Length of 3′ overhang. […] Alternatively, a dsDNA donor with 30-base 3′ overhang but without phosphorothioate modification (30-3′n) was used. The percentage of digestion with EcoRI was determined at 48 hours post transfection. (C) Dose effect. […] The eBFP loci were PCR-amplified. The resulting PCR fragments were analyzed by EcoRI digest. (D) Sequencing verification. The PCR fragments were cloned into E. coli and 192 clones were randomly picked for sequencing. The relative percentage of wild type (wt), NHEJ, and HDR clones derived from either ssDNA donor (ssDNA) or dsDNA with 3′ overhangs (3′ overhang) was plotted. The white rectangles represented the population of clones that contained the insert but with a point mutation. Examples of edited clones were shown in (E) (not representing the actual percentages of NHEJ and HDR). The underlined sequences represented the FLAG tag along with an RI site. FIG. 11 discloses SEQ ID NOs: 15-24, respectively, from top to bottom.
To create homologous recombination (HR) assays, a series of gRNAs flanking the insertion site within the EmGFP gene were designed and synthesized (Table 4). Each individual gRNA was combined with GENEART™ […]™ Cas9 Nuclease to form the Cas9 protein/gRNA ribonucleoprotein complexes (Cas9 RNPs). The Cas9 RNPs were then used to transfect cells via NEON® electroporation. The genomic cleavage efficiency was then evaluated using the GENEART® Genomic Cleavage Detection kit at 48 hours post transfection. The gRNAs with highest editing efficiencies and also in close proximity to the insertion site were selected for the subsequent HR assays. For donor design of a single-stranded oligonucleotide, typically the mutation site was positioned at the center flanked by 30 to 50 nucleotides on each side. For asymmetric donor design, 30 nucleotides were placed on either the left or right arm and then 50 or 67 nucleotides on the right or left arm respectively, in both PAM and non-PAM strands. For design of a dsDNA oligonucleotide with single-stranded overhangs, the insertion element was overlapped in the center flanked by various lengths of ssDNA oligonucleotide on each side. By annealing two single-stranded oligonucleotides at 95° C. for 3 minutes, dsDNA donor molecules with either a 5′ protrusion or a 3′ protrusion were generated. To measure homologous recombination efficiency, the donor DNA was either co-transfected with Cas9 RNPs or delivered sequentially into cells via electroporation. At 48 hours post transfection, the gain of EmGFP function in reporter cell lines was determined by flow cytometric analysis with an Attune® NxT Acoustic Focusing Cytometer (Thermo Fisher Scientific). Alternatively, the genomic loci were PCR-amplified using the corresponding primers and then subjected to GENEART® Genomic Cleavage Detection assay or restriction digestion. The resulting PCR products were also subjected to TOPO cloning. Typically, 96 colonies were randomly picked for sequencing. […]

[2] = tested on: eBFP locus in HEK293 cells expressing eBFP; assay: Genomic cleavage and detection assay at eBFP locus after Cas9 RNP and FLAG/EcoRI donor; conditions: sequential delivery, 48 hours post transfection
Excerpt: as §1
The genomic cleavage efficiency was measured by GENEART® Genomic Cleavage Detection kit according to manufacturer's instructions. The primer sequences for PCR amplification of each genomic locus are described in Table 4. Cells were analyzed at 48 to 72 hours post transfection. The cleavage efficiencies were calculated based on the relative agarose gel band intensity, which were quantified using an […]® gel documentation system running […]®, Version 3.4.0.0. ProteinSimple (San Jose, Calif., USA).
To extend this concept, we hypothesized that a dsDNA donor harboring single-stranded overhangs would facilitate HDR to higher levels than with blunt ends. To test this hypothesis, we designed and generated a series of donor molecules with either blunt end, 5′ end protrusion or 3′ end protrusion by annealing two small single-stranded oligonucleotides. A single-stranded DNA donor was used as a control. The 5′ and 3′ ends of oligonucleotides were protected with two consecutive phosphorothioate-modified bases (Table 3). For proof of concept, we inserted a 30 nucleotide FLAG epitope tag along with an EcoRI site into the BFP gene stably expressed in HEK293 cells. The gRNA was designed to target the top DNA strand. The length of single-stranded overhangs varied from 6 nucleotides to 30 nucleotides. The oligonucleotides were denatured and re-annealed prior to transfection forming the structures described in FIG. 11A. […] Co-delivery of Cas9 RNPs and donor DNA gave lower HDR efficiencies. At 48 hours post transfection, the genomic locus was PCR-amplified and the editing efficiencies were determined using a GCD assay. […] When the PCR fragments were subjected to restriction digestion with EcoRI to identify properly inserted constructs, only the donor DNA molecules containing 30-base single-stranded overhangs at the 3′ ends produced the expected digested fragments (30-3′ in FIG. 11, panel A). […]

[3] = tested on: HEK293 cells stably expressing eBFP; assay: HDR assay, conversion of eBFP to GFP by flow cytometry; conditions: oligonucleotide length and modification, sequential delivery, 1 nt substitution, 48 hours
Excerpt: To generate a HEK293FT stable cell line expressing eBFP, an eBFP ORF was synthesized by GENEART® custom DNA synthesis (Thermo Fisher Scientific) and then cloned into pDONAR221 vector. Using GATEWAY® recombination technology (Thermo Fisher Scientific), the eBFP ORF was transferred to pLenti6.2-DEST Gateway Vector and then verified by sequencing. Lentivirus was generated using VIRAPOWER® kit as described in the manual. To generate stable cell line, HEK293FT cells were transduced with 0.1 MOI of Lentivirus expressing eBFP. Three days post transduction cells were selected on 5 μg/mL Blasticidine antibiotics for 2 weeks. Cells expressing eBFP were then collected and diluted to […] in complete medium and plated into 96 well plates for single cell clone. After 2 weeks clones were isolated and verified for eBFP expression by flow cytometer. In a reporter assay using a stable eBFP-expressing HEK293 cell line, the substitution of C to T in eBFP gene converts His67 to Tyr67, generating a GFP variant (Table 5).
(§2) To create homologous recombination (HR) assays, a series of gRNAs flanking the insertion site within the EmGFP gene were designed and synthesized (Table 4). Each individual gRNA was combined with GENEART™ […]™ Cas9 Nuclease to form the Cas9 protein/gRNA ribonucleoprotein complexes (Cas9 RNPs). The Cas9 RNPs were then used to transfect cells via NEON® electroporation. The genomic cleavage efficiency was then evaluated using the GENEART® Genomic Cleavage Detection kit at 48 hours post transfection. The gRNAs with highest editing efficiencies and also in close proximity to the insertion site were selected for the subsequent HR assays. For donor design of a single-stranded oligonucleotide, typically the mutation site was positioned at the center flanked by 30 to 50 nucleotides on each side. For asymmetric donor design, 30 nucleotides were placed on either the left or right arm and then 50 or 67 nucleotides on the right or left arm respectively, in both PAM and non-PAM strands. For design of a dsDNA oligonucleotide with single-stranded overhangs, the insertion element was overlapped in the center flanked by various lengths of ssDNA oligonucleotide on each side. By annealing two single-stranded oligonucleotides at 95° C. for 3 minutes, dsDNA donor molecules with either a 5′ protrusion or a 3′ protrusion were generated. To measure homologous recombination efficiency, the donor DNA was either co-transfected with Cas9 RNPs or delivered sequentially into cells via electroporation. At 48 hours post transfection, the gain of EmGFP function in reporter cell lines was determined by flow cytometric analysis with an Attune® NxT Acoustic Focusing Cytometer (Thermo Fisher Scientific). Alternatively, the genomic loci were PCR-amplified using the corresponding primers and then subjected to GENEART® Genomic Cleavage Detection assay or restriction digestion. The resulting PCR products were also subjected to TOPO cloning. Typically, 96 colonies were randomly picked for sequencing. The sequencing data were analyzed using VECTOR NTI ADVANCE® 11.5 software (Thermo Fisher Scientific).
For each homologous recombination assay, 1.5 μg of Cas9 protein and 360 ng of gRNA were added to Resuspension Buffer R to a final volume of 7 μl, but limiting the total volume of Cas9 protein plus gRNA to less than 1 μl. The gRNA could be diluted in Buffer R if the concentration was too high. Upon mixing, the sample was incubated at room temperature for 5 to 10 minutes to form Cas9 RNPs. Meanwhile, […]™ HEK293 cells expressing either eBFP or disrupted EmGFP were detached from culture flask with TRYPLE™ Express Enzyme and then counted. Aliquots of 1×10^6 cells were washed once with DPBS without Ca^2+ and Mg^2+ and the cell pellets were resuspended in 50 μl of Resuspension Buffer R. A 5 μl aliquot of cell suspension was mixed with 7 μl of Cas9 RNPs. […] The electroporated cells were transferred to 300 μl of […]. […]

eBFP genomic locus = assay: Sequencing verification of eBFP locus, 1 nt substitution (96 clones); conditions: sequencing of 96 clones; for Relative percentage HDR / Relative percentage NHEJ / Relative percentage wt: 1 nt substitution
Protocol: FIG. 8. Effects of oligonucleotide length and modification on HDR. (A) PAM ssDNA (6 nt insertion). […] Various length of PAM ssDNA oligonucleotide was normalized to either equal mass or equal molarity. Samples in the absence of donor (+gRNA) or gRNA (−gRNA) served as controls. The percentages of GFP-positive cells were determined by flow cytometry at 48 hours post transfection. (B) PAM ssDNA (1 nt substitution). […] The percentages of GFP-positive cells were determined by flow cytometry at 48 hours post transfection. (C) Verification by sequencing. The eBFP genomic locus was PCR-amplified, followed by cloning and Sanger sequencing of 96 samples. The relative percentage of wild type (wt), NHEJ, and HDR was plotted. (D) Examples of mutations. Examples of edited clones (not representing the actual percentages of NHEJ and HDR). FIG. 8 discloses SEQ ID NOs: 4-14, respectively, from top to bottom.
as §2
It has been reported that relatively short single-stranded oligonucleotides containing 25-61 bases homologous to the target sequence were capable of correcting a single point mutation (Igoucheva, O., Alexeev, V., Yoon, K., Targeted gene correction by small single-stranded oligonucleotides in mammalian cells, Gene Ther. 8(5):391-399 (2001)). […]

[4] = listed as 80-base modified oligonucleotide

B1: 6-5′: dsDNA donor with 6 nucleotide 5′ overhangs, annealed SEQ ID 77 and 78 (nucleic acid)
chain 1: dC*dT*dGdAdCdCdGdAdCdTdAdCdAdAdAdGdAdCdGdAdTdGdAdCdGdAdCdAdAdGdAdAdTdTdC*dT*dT
chain 2: dC*dG*dCdCdGdTdAdAdGdAdAdTdTdCdTdTdGdTdCdGdTdCdAdTdCdGdTdCdTdTdTdGdTdAdG*dT*dC
modifications: Two annealed DNA oligonucleotides with 5' overhangs, further chemistry not fully specified
- Avg (% digestion) [1]: 0.00%
- Avg (% Indels) [2]: 56.50%

B2: PS80: phosphorothioate 80-mer ssDNA, BFP point mutation, SEQ ID 49 (nucleic acid)
DNA: {P}-dG*dC*dTdGdCdCdCdGdTdGdCdCdCdTdGdGdCdCdCdAdCdCdCdTdCdGdTdGdAdCdCdAdCdCdCdTdGdAdCdCdTdAdCdGdGdCdGdTdGdCdAdGdTdGdCdTdTdCdAdGdCdCdGdCdTdAdCdCdCdCdGdAdCdCdAdCdAdT*dG*dA
- Avg (% GFP+ cells) [3]: 44.3%
- Avg (% GFP+ cells) [3, 4]: approximately 45%
- overall genome modification efficiency (eBFP genomic locus): ~94%
- Relative percentage HDR (eBFP genomic locus): 40.4%
- Relative percentage NHEJ (eBFP genomic locus): 53.8%
- Relative percentage wt (eBFP genomic locus): 5.8%
- Relative percentage HDR (eBFP genomic locus; [4]): Approximately 40%
- Relative percentage NHEJ (eBFP genomic locus; [4]): approximately 54%
- Relative percentage wt (eBFP genomic locus; [4]): approximately 6%

B3: blunt: blunt-end dsDNA donor, FLAG tag plus EcoRI site, annealed SEQ ID 75 and 76 (nucleic acid)
chain 1: dG*dA*dCdTdAdCdAdAdAdGdAdCdGdAdTdGdAdCdGdAdCdAdAdGdAdAdTdTdC*dT*dT
chain 2: dA*dA*dGdAdAdTdTdCdTdTdGdTdCdGdTdCdAdTdCdGdTdCdTdTdTdGdTdAdG*dT*dC
modifications: annealed double-stranded DNA donor, further chemistry not fully specified
- Avg (% digestion) [1]: 0.00%
- Avg (% Indels) [2]: 68.50%

B4: 6-3′: dsDNA donor with 6 nucleotide 3′ overhangs, annealed SEQ ID 79 and 80 (nucleic acid)
chain 1: GACTACAAAGACGATGACGACAAGAATTCTTACGGCG
chain 2: AAGAATTCTTGTCGTCATCGTCTTTGTAGTCGGTCAG
modifications: chemistry not fully specified
- Avg (% digestion) [1]: 0.00%
- Avg (% Indels) [2]: 78.50%
